What is called Kd is the constant that tells how readily two partners part at equilibrium.

One test deals with HLA-A*30:02. Put plainly: IEDB peptide-MHC binding, purified MHC/competitive/radioactivity; filed as Kd, often an IC50 or EC50 that approximates it; ≥ and ≤ were set here for values at or beyond the usual limits of such assays.
The next test concerns the target HLA-A*01:01. Described as above.
For a further test, the target named is HLA-A*02:02. The test is described as above.
The target of another test is HLA-A*02:06. Described as above.
The target of the next test is HLA-A*02:03. The description is as above.
In a further test the target is HLA-A*26:01. Described as above.
A further test has as its target HLA-A*02:01. In words: IEDB peptide-MHC binding, purified MHC/direct/fluorescence; filed as Kd, often an IC50 or EC50 that approximates it; ≥ and ≤ were set here for values at or beyond the usual limits of such assays. The settings on record: source organism: Mycobacterium tuberculosis.
For another test, the target named is HLA-B*53:01. Put plainly: IEDB peptide-MHC binding, purified MHC/competitive/radioactivity; filed as Kd, often an IC50 or EC50 that approximates it; ≥ and ≤ were set here for values at or beyond the usual limits of such assays. The settings on record: source organism: Dengue virus 3 Martinique/1243/1999.
In a further test the target is HLA-A*11:01. In words: IEDB peptide-MHC binding, purified MHC/direct/fluorescence; filed as Kd, often an IC50 or EC50 that approximates it; ≥ and ≤ were set here for values at or beyond the usual limits of such assays.
The target of test [1] is HLA-A*03:01. Described as above. The conditions noted are these: source organism: Coxiella burnetii.
Test [2] addresses HLA-A*03:01. In words: IEDB peptide-MHC binding, purified MHC/competitive/radioactivity; filed as Kd, often an IC50 or EC50 that approximates it; ≥ and ≤ were set here for values at or beyond the usual limits of such assays. The conditions noted are these: source organism: Dengue virus 3 Martinique/1243/1999.
Where [3] appears, read: source organism: Dengue virus 1 Brazil/97-11/1997.
[4] abbreviates: source organism: Vaccinia virus WR.
Where [5] appears, read: source organism: Dengue virus 2 Jamaica/1409/1983.
[6] abbreviates: source organism: Mammarenavirus caliense.
[7] abbreviates: source organism: Dengue virus 3 Martinique/1243/1999.
The mark [8] stands for this setting: source organism: Dengue virus 4 Philippines/H241/1956.
[9] abbreviates: source organism: SARS coronavirus Tor2.

Consider QLSKSEFNTY, for which the dissociation constant (Kd) came to 71.1 nM with HLA-A*30:02 (setting [3]) and 1390 nM with HLA-A*01:01 (setting [3]).

As to RTPQDNQLAY, the values for the dissociation constant (Kd) in the test with HLA-A*30:02 (setting [3]) and in the test with HLA-A*01:01 (setting [3]) were 267 nM and 703 nM, respectively.

In the case of GLILFVLAL, the Kd in the test with HLA-A*02:02 (setting [4]) was determined as 129 nM; with HLA-A*02:06 (setting [4]), 7800 nM; with HLA-A*02:03 (setting [4]), 452 nM.

SRKTFDSEY: the dissociation constant (Kd) with HLA-A*30:02 (setting [5]) was 3810 nM.

Consider ATMTDDIGM, for which the equilibrium dissociation constant (Kd) in the test with HLA-A*26:01 (setting [5]) was found to be 8340 nM.

In turn, ALLDLGWTI displayed a Kd with HLA-A*02:01 of 0.9 nM.

Regarding NLERETGLSA, the Kd is 17600 nM in the test with HLA-A*02:02 (setting [4]), 15100 nM with HLA-A*02:06 (setting [4]) and 1660 nM with HLA-A*02:03 (setting [4]).

Consider NPQKENDQY, for which, in the test with HLA-B*53:01, the Kd worked out at 2080 nM.

For the sequence SEFKSRFFIW, the Kd with HLA-A*30:02 (setting [6]) was 7480 nM; with HLA-A*01:01 (setting [6]), 2210 nM; with HLA-A*26:01 (setting [6]), ≥ 69700 nM.

Regarding ILSLETVKM, the values for the Kd with HLA-A*02:02 (setting [4]), with HLA-A*02:06 (setting [4]) and with HLA-A*02:03 (setting [4]) were 4.77 nM, 280 nM and 11.8 nM, respectively.

For the sequence VIRHVDGKIL, the Kd with HLA-A*02:02 (setting [4]) is ≥ 70000 nM; with HLA-A*02:06 (setting [4]) it was ≥ 69800 nM; with HLA-A*02:03 (setting [4]), ≥ 33400 nM.

For the sequence NASKTINAL, the dissociation constant Kd in the test with HLA-A*02:02 (setting [4]) came out at 117 nM; in the test with HLA-A*02:06 (setting [4]), 6100 nM; with HLA-A*02:03 (setting [4]) it was 708 nM.

In the case of ALKAYFTAKI, the Kd in the test with HLA-A*02:02 (setting [4]) came out at 194 nM; with HLA-A*02:06 (setting [4]), 2780 nM; in the test with HLA-A*02:03 (setting [4]), 77 nM.

For the sequence ALAAATPMV, the Kd in the test with HLA-A*02:01 came to 5.2 nM.

Consider ALAEHISDSI, for which the figures for the Kd with HLA-A*02:02 (setting [4]), with HLA-A*02:06 (setting [4]) and in the test with HLA-A*02:03 (setting [4]) were 0.198 nM, 163 nM and 0.34 nM, respectively.

As for STFNMWREIL, the dissociation constant Kd with HLA-A*02:02 (setting [4]) amounted to 3120 nM; in the test with HLA-A*02:06 (setting [4]), 3360 nM; with HLA-A*02:03 (setting [4]), 907 nM.

In the case of CTNDIYCDEI, the Kd amounted to 2460 nM in the test with HLA-A*02:02 (setting [4]), 4760 nM with HLA-A*02:06 (setting [4]) and 5720 nM in the test with HLA-A*02:03 (setting [4]).

Take STTENAAYQV: the equilibrium dissociation constant (Kd) with HLA-A*02:02 (setting [4]) was determined as 928 nM; in the test with HLA-A*02:06 (setting [4]) it was 101 nM; with HLA-A*02:03 (setting [4]), 4700 nM.

The sequence VLWDIPTPK yielded an equilibrium dissociation constant (Kd) in the test with HLA-A*11:01 (source organism: Yellow fever virus 17D) of 4.4 nM.

Turning to ILCGWHLLK, the Kd was found to be 3.8 nM with HLA-A*11:01 (source organism: Coxiella burnetii) and 33.2 nM in the test with HLA-A*03:01 [1].

LAISAVYFKA: the dissociation constant Kd with HLA-A*02:02 (setting [4]) was determined as 1430 nM; with HLA-A*02:06 (setting [4]), 659 nM; with HLA-A*02:03 (setting [4]), 363 nM.

With KLMSGKDVFY, the figures for the Kd in the test with HLA-A*30:02 (setting [7]), with HLA-A*01:01 (setting [7]) and in the test with HLA-A*03:01 [2] were ≥ 69700 nM, 1480 nM and 15.9 nM, respectively.

For the sequence ELSRLRYNL, the equilibrium dissociation constant (Kd) is 0.93 nM with HLA-A*02:02 (setting [4]), 18600 nM in the test with HLA-A*02:06 (setting [4]) and 254 nM with HLA-A*02:03 (setting [4]).

RQVSVKLLI: the dissociation constant (Kd) was determined as 17900 nM in the test with HLA-A*02:02 (setting [4]), 0.135 nM with HLA-A*02:06 (setting [4]) and 254 nM in the test with HLA-A*02:03 (setting [4]).

With MTTEDMLTVW, the Kd in the test with HLA-B*53:01 is 122 nM.

On to YVDFREYEYD, for which, in the test with HLA-A*01:01 (source organism: Homo sapiens), the Kd was 90 nM.

As to CIVAAVIIM, the Kd with HLA-A*02:02 (setting [4]) was 14300 nM; with HLA-A*02:06 (setting [4]), ≥ 32600 nM; with HLA-A*02:03 (setting [4]), 1420 nM.

On to DVVDRGWGN, for which the dissociation constant Kd with HLA-A*26:01 (setting [8]) is ≥ 77900 nM.

In the case of FLFLAWIMLL, the equilibrium dissociation constant (Kd) with HLA-A*02:02 (setting [9]) worked out at 18.6 nM; with HLA-A*02:06 (setting [9]), 1010 nM; with HLA-A*02:03 (setting [9]) it was 55.7 nM.

For IVPEFAKQYV, the values for the Kd with HLA-A*02:02 (setting [4]), with HLA-A*02:06 (setting [4]) and with HLA-A*02:03 (setting [4]) were 10.3 nM, 15 nM and 18.3 nM, respectively.

Take ITMTTVYHI: the figures for the equilibrium dissociation constant (Kd) in the test with HLA-A*02:02 (setting [9]), in the test with HLA-A*02:06 (setting [9]) and with HLA-A*02:03 (setting [9]) were 19.2 nM, 2.31 nM and 7.21 nM, respectively.

For the sequence NVTGFMEEEI, the Kd in the test with HLA-A*02:02 (setting [4]) is 10300 nM; with HLA-A*02:06 (setting [4]) it was 17700 nM; with HLA-A*02:03 (setting [4]), 5140 nM.

As to TLLGLILFVL, the Kd is 169 nM in the test with HLA-A*02:02 (setting [4]), 672 nM with HLA-A*02:06 (setting [4]) and 796 nM with HLA-A*02:03 (setting [4]).

Regarding EIVSHLRAST, the Kd in the test with HLA-A*02:02 (setting [4]) turned out to be 5150 nM; in the test with HLA-A*02:06 (setting [4]) it was 12600 nM; in the test with HLA-A*02:03 (setting [4]), 2810 nM.

For the sequence EFIDGISLGL, the Kd with HLA-A*26:01 (setting [8]) worked out at 4720 nM.

These data come from the Immune Epitope Database (IEDB).
